{"source": "paper PMC4816226", "molecular_target": "biotinylated bovine serum albumin (bovine) (UniProt P02769)", "sequence (P02769 25-607)": "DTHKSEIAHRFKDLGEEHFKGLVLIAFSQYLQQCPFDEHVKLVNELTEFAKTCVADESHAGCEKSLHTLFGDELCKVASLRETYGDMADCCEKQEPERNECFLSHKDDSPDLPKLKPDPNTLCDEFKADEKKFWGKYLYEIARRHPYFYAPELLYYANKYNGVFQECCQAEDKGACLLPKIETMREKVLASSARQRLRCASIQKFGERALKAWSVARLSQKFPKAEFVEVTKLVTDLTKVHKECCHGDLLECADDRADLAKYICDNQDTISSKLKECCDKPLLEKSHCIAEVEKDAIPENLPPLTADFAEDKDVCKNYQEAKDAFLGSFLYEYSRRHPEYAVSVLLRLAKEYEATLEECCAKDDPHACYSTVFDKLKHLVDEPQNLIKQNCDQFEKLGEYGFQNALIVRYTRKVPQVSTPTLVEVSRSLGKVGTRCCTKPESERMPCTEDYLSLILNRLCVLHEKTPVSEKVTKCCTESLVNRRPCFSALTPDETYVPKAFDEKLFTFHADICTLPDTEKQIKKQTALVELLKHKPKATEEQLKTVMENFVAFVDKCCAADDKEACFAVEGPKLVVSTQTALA", "assay": "broad-band Mach-Zehnder interferometry (label-free, TE and TM phase shifts); multiplexed chip: mouse IgG (WGs 1, 4, 7, 10), biotinylated-BSA (WGs 2, 5, 8) and BSA blanks spotted on the sensing arms, blocked with BSA; 1 nM streptavidin in assay buffer (50 mM phosphate, pH 7.4, 10 g/L BSA) for 20 min, then 10 nM anti-mouse IgG antibody for 20 min; 20 ul/min", "data": [{"substance": "Immunopure Streptavidin (from UniProt P22629 25-183) (natural protein)", "values": [{"measurement": "TE phase shift after 20 min with 1 nM streptavidin (interferometer 2)", "value": 4.48, "unit": "radians"}, {"measurement": "TE phase shift after 20 min with 1 nM streptavidin (interferometer 5)", "value": 4.56, "unit": "radians"}, {"measurement": "TE phase shift after 20 min with 1 nM streptavidin (interferometer 8)", "value": 4.25, "unit": "radians"}, {"measurement": "TM phase shift after 20 min with 1 nM streptavidin (interferometer 2)", "value": 6.02, "unit": "radians"}, {"measurement": "TM phase shift after 20 min with 1 nM streptavidin (interferometer 5)", "value": 6.87, "unit": "radians"}, {"measurement": "TM phase shift after 20 min with 1 nM streptavidin (interferometer 8)", "value": 5.73, "unit": "radians"}]}]}
